# Test results reported in paper PMC11153517.
# Experiments:
# [1] = biological target: human tumor necrosis factor (TNF)-α (human) (UniProt P01375)
# [2] = biological target: human tumor necrosis factor (TNF)-α (human) (UniProt P01375); remark: listed apart in the source
# UniProt P01375, sequence (P01375 whole entry): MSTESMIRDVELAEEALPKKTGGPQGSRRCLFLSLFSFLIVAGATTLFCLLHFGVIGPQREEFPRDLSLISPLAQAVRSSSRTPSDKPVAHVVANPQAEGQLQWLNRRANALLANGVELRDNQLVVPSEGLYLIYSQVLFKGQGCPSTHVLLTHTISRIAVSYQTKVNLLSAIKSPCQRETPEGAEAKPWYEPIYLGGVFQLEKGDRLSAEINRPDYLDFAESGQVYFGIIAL
binder,measurement,setting,value
PIYLGGVFQ [peptide …],"inhibition of TNFα-induced NFκB (p65) nuclear translocation in A549 cells, Western blot of nuclear extract; peptide 50, 100 and 200 μM (49%, 56% and 65%)",[1],65 % inhibition
same,"apoptosis of Wehi-164 cells with TNFα (100 ng/ml) and actinomycin D, MTT assay, 20 h; peptide 50, 100 and 200 μM premixed with TNFα; 70% cell death with TNFα and AcD without the peptide",[2],26.4 % apoptosis
